Results reported in patent US20040138133A1 (Scripps Research, published 2004).
No end group written: not given here.

Target: T1, Nck (adapter protein) from detergent extracts of human endothelial cells (human, UniProt P16333 2-377, limits assumed)
T1 construct: Endogenous protein pulled down from a cell lysate
Test: peptide-agarose pull-down from human endothelial cell lysate, anti-Nck western blot
Protocol: Affinity Chromatography. PRO or control peptides containing an N-terminal cysteine were dissolved in about 1 ml of coupling buffer (50 mM tris pH 8.0, 5 mM EDTA) and about 0.5 ml at about 3 mg/ml peptide added to about 2 ml of activated thiol-Sepharose (Pharmacia). Samples were incubated at a temperature of about 4° C. overnight with 1% β-mercaptoethanol added to block unreacted sites. Beads were rinsed and stored at a temperature of about 4° C. Endothelial cell cultures in 15 cm dishes were extracted in about 1.0 ml of cold (about 4° C.), lysis buffer (20 mM pH 7.4 sodium phosphate, 100 mM NaCl, 1% Triton X-100, 10 mM NaF, 2 mM EDTA, 1 mM sodium orthovanadate, 1 mM PMSF, 10 μg/ml each of leupeptin and aprotinin). The extracts were centrifuged for about 10 minutes at top speed in a microfuge and the supernatants were then removed. A 0.5 ml sample of each extract was incubated with about 10 μl of packed beads for about 1 hour, with rotation at a temperature of about 4° C. The beads were rinsed with lysis buffer (about 4×0.5 ml) and dissolved in SDS sample buffer (about 0.04 ml). Samples were analyzed by SDS PAGE on 10% gels and immunoblotting with anti-NCK (Santa Cruz) and HRP-protein A as secondary, and then were developed and detected using enhanced chemiluminescence (ECL kit, Amersham). […]

- binding result: no binding
Binder: KAGAPPMRNTSTMC (also: C-terminal Cys coupled to thiol-Sepharose (agarose) beads, also called mutant peptide)
